# Results from patent publication US12134610B2, “Somatostatin subtype-2 receptor (SST2R) targeted therapeutics and uses thereof” (priority 2022, dated 2024).
# pEC50: −log10 of the molar value. Like-named read-outs stand apart in the source and are kept apart here.
# Legend:
# [1] = target: T1, human somatostatin receptor subtype 2 (Homo sapiens, UniProt P30874); assay: Functional cAMP assay for SSTR2 agonists (HTRF) in CHO-K1 cells; type: cell-based; settings: CHO-K1 cells stably expressing human SST2, 20 min; read-out: hSST2 cAMP Avg EC50
# T1 construct: expressed in transfected cells
# Method in brief: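 CHO-K1 cells stably expressing receptor, plated 4 days before assay, treated 20 min at 37° C. with compound (typically 0-10,000 nM final) plus IBMX and 1.6 μM NKH477 to raise cAMP. HTRF read, 665/620 nm ratio; cAMP from standard curve, EC50 fitted.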
# [2] = system: NCI-H524 (ATCC) human small cell lung cancer cells; type: cell-based
# Method in brief: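 NCI-H524 cells (5,000/well) were exposed 24 h after plating to SMDC for 2 h, 11-point two-fold series from 1 uM. After washout they grew a further 70 h. Proliferation was read by CellTiter-Glo luminescence, % inhibition taken vs untreated control, and IC50 fitted by four-parameter nonlinear regression.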
# [3] = H524 tumor biodistribution model: tumor and plasma levels of SMDC and MMAE by LC/MS-MS; type: in vivo, female Athymic nude mice; settings: H524 tumor bearing nude mice
# Protocol: In this example, 5 million H524 (Small Cell Lung Cancer) cells in 1:1 Matrigel: cold Media (RPMI1640) were injected into the subcutaneous (SQ) flank of female Athymic nude mice. Tumor volumes and body weights were measured twice a week. The tumors were allowed to grow until they reached 250-500 mm^3 in size before animals were randomized into groups (n=3/time point). Animals were injected intravenously with a SMDC of the present invention at a single dose of 500 nmol/kg. […] BLQ: Below Limit of Quantitation.
# SST2 = target: T2, SST2 (Homo sapiens, UniProt P30874); assay: PathHunter CHO-K1 SST2 internalization assay; type: cell-based; settings: PathHunter CHO-K1 SST2, 90 min; read-out: Internalization EC50
# T2 construct: host or cells: PathHunter CHO-K1 SST2 cells
# Method in brief: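 PathHunter CHO-K1 SST2 cells, seeded and grown 48 h, were exposed to 11-point 1:3 dilutions of SMDC (top final 10 uM) for 90 min at 37 C, 5% CO2. Beta-Glo luminescence was read after 60 min at room temperature. Background-corrected duplicate means were fitted by four-parameter nonlinear regression to give IC50.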
# [4] = MMAE level 1 h after 500 nmol/kg IV of the conjugate
# [5] = MMAE level 4 h after 500 nmol/kg IV of the conjugate
# [6] = MMAE level 24 h after 500 nmol/kg IV of the conjugate
# [7] = MMAE level 72 h after 500 nmol/kg IV of the conjugate
# [8] = female, Athymic nude, mouse, plasma, 4 h after 500 nmol/kg IV, read-out: Conjugate Plasma
# [9] = female, Athymic nude, mouse, plasma, 24 h after 500 nmol/kg IV, read-out: Conjugate Plasma
# [10] = female, Athymic nude, mouse, 4 h after 500 nmol/kg IV, read-out: Conjugate Tumor
# [11] = MMAE level 168 h after 500 nmol/kg IV of the conjugate
# T2 sequence (P30874 whole entry): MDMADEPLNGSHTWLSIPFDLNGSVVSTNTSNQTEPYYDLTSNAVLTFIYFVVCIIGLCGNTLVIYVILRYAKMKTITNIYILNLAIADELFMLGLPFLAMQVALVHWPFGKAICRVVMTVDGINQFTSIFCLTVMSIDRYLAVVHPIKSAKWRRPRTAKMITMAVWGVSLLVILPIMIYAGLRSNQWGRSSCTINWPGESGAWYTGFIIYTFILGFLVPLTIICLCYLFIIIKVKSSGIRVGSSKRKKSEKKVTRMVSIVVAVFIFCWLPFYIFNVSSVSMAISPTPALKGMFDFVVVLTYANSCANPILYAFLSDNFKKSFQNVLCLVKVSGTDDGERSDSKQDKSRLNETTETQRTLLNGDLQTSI
# T1 sequence (P30874 whole entry): as above
Structure (SMILES),pEC50 [1],pEC50 ([2]; 2 h),Conjugate Tumor (nM) ([3]; 72 h after 500 nmol/kg IV),"MMAE Plasma [3, 5] [nM]","MMAE Tumor [3, 5] [nM]","MMAE Tumor [3, 6] [nM]","MMAE Plasma (nM) [3, 7]","MMAE Tumor [3, 7] [nM]",pEC50 (SST2),further results
CC[C@H](C)[C@@H]([C@@H](CC(=O)N1CCC[C@H]1[C@H](OC)[C@@H](C)C(=O)N[C@H](C)[C@@H](O)c1ccccc1)OC)N(C)C(=O)[C@@H](NC(=O)[C@H](C(C)C)N(C)C(=O)OCc1ccc(NC(=O)[C@H](CCCNC(N)=O)NC(=O)[C@@H](NC(=O)[C@H](CCC(=O)O)NC(=O)CCOCCC(=O)NCCNc2ncc(-c3cc(C)cc(F)c3)c(N3CCC(N)CC3)c2-c2nc3ccc(Cl)cc3[nH]2)C(C)C)cc1C(=O)NCCN)C(C)C [Compound 49],9.85,7.76,BLQ,1.36,65.7,83.5,BLQ,62.7,8.26,"Conjugate Tumor (nM) ([3]; 24 h after 500 nmol/kg IV): BLQ; Conjugate Plasma (nM) ([3]; 72 h after 500 nmol/kg IV): BLQ; MMAE Plasma [3, 4]: 9.2 nM; MMAE Tumor [3, 4]: 38 nM; MMAE Plasma (nM) [3, 6]: BLQ; level at time molar at 1 h ([3]; female, Athymic nude, mouse, plasma, 1 h after 500 nmol/kg IV, read-out: Conjugate Plasma): 354 nM; level at time molar at 4 h [3, 8]: 41.6 nM; level at time molar at 24 h [3, 9]: 0.783 nM; level at time molar at 1 h ([3]; female, Athymic nude, mouse, 1 h after 500 nmol/kg IV, read-out: Conjugate Tumor): 88.1 nM; level at time molar at 4 h [3, 10]: 46.5 nM"
CC[C@H](C)[C@@H]([C@@H](CC(=O)N1CCC[C@H]1[C@H](OC)[C@@H](C)C(=O)N[C@H](C)[C@@H](O)c1ccccc1)OC)N(C)C(=O)[C@@H](NC(=O)[C@H](C(C)C)N(C)C(=O)OCc1ccc(NC(=O)[C@H](CCCNC(N)=O)NC(=O)[C@@H](NC(=O)CCOCCC(=O)NCCNc2ncc(-c3cc(C)cc(F)c3)c(N3CCC(N)CC3)c2-c2nc3ccc(Cl)cc3[nH]2)C(C)C)c(O[C@@H]2O[C@H](C(=O)O)[C@@H](O)[C@H](O)[C@H]2O)c1)C(C)C [Compound 61],9.96,7.48,BLQ,0.754,75.0,320,BLQ,267,7.90,"Conjugate Plasma (nM) ([3]; 72 h after 500 nmol/kg IV): BLQ; Conjugate Plasma (nM) ([3]; 168 h after 500 nmol/kg IV): BLQ; Conjugate Tumor (nM) ([3]; 168 h after 500 nmol/kg IV): BLQ; MMAE Plasma (nM) [3, 11]: BLQ; MMAE Tumor [3, 11]: 97.8 nM; level at time molar at 4 h [3, 8]: 1100 nM; level at time molar at 24 h [3, 9]: 56.5 nM; level at time molar at 4 h [3, 10]: 181 nM; level at time molar at 24 h ([3]; female, Athymic nude, mouse, 24 h after 500 nmol/kg IV, read-out: Conjugate Tumor): 37 nM"
CC[C@H](C)[C@@H]([C@@H](CC(=O)N1CCC[C@H]1[C@H](OC)[C@@H](C)C(=O)N[C@H](C)[C@@H](O)c1ccccc1)OC)N(C)C(=O)[C@@H](NC(=O)[C@H](C(C)C)N(C)C(=O)OCc1ccc(NC(=O)[C@H](C)NC(=O)[C@@H](NC(=O)CCOCCC(=O)NCCNc2ncc(-c3cc(C)cc(F)c3)c(N3CCC(N)CC3)c2-c2nc3ccc(Cl)cc3[nH]2)C(C)C)c(O[C@@H]2O[C@H](C(=O)O)[C@@H](O)[C@H](O)[C@H]2O)c1)C(C)C [Compound 68],,,BLQ,1.94,197,299,BLQ,231,,"pEC50 ([2]; 2 h treatment, washout, additional 70 h, read-out: H524 EC50): 7.95; level at time molar at 24 h ([3]; 1 h after 500 nmol/kg IV, read-out: Conjugate Plasma): 1388 nM; level at time molar at 24 h ([3]; 1 h after 500 nmol/kg IV, read-out: Conjugate Tumor): 212 nM; level at time molar at 24 h ([3]; 4 h after 500 nmol/kg IV, read-out: Conjugate Plasma): 446 nM; level at time molar at 24 h ([3]; 4 h after 500 nmol/kg IV, read-out: Conjugate Tumor): 91.3 nM; level at time molar at 24 h ([3]; 24 h after 500 nmol/kg IV, read-out: Conjugate Plasma): 36.9 nM; level at time molar at 24 h ([3]; 24 h after 500 nmol/kg IV, read-out: Conjugate Tumor): 15.5 nM; level at time molar at 24 h ([3]; 72 h after 500 nmol/kg IV, read-out: Conjugate Plasma): 0.68 nM; MMAE Plasma [3, 4]: 8.82 nM; MMAE Tumor [3, 4]: 17.5 nM; MMAE Plasma [3, 6]: 0.416 nM"
CC[C@H](C)[C@@H]([C@@H](CC(=O)N1CCC[C@H]1[C@H](OC)[C@@H](C)C(=O)N[C@H](C)[C@@H](O)c1ccccc1)OC)N(C)C(=O)[C@H](C)NC(=O)[C@H](C(C)C)N(C)C(=O)OCc1ccc(NC(=O)[C@@H](NC(=O)[C@@H](NC(=O)CCN(C)CCC(=O)NCCNc2ncc(-c3cc(C)cc(F)c3)c(N3CCC(N)CC3)c2-c2nc3ccc(Cl)cc3[nH]2)C(C)C)C(C)C)c(O[C@@H]2O[C@H](C(=O)O)[C@@H](O)[C@H](O)[C@H]2O)c1 [Compound 154],9.80,7.54,,,,,,,7.60,
CC[C@H](C)[C@@H]([C@@H](CC(=O)N1CCC[C@H]1[C@H](OC)[C@@H](C)C(=O)N[C@H](C)[C@@H](O)c1ccccc1)OC)N(C)C(=O)[C@@H](NC(=O)[C@H](C(C)C)N(C)C(=O)OCc1ccc(NC(=O)[C@H](C)NC(=O)[C@@H](NC(=O)CCNCCC(=O)NCCNc2ncc(-c3cc(C)cc(F)c3)c(N3CCC(N)CC3)c2-c2nc3ccc(Cl)cc3[nH]2)C(C)C)c(O[C@@H]2O[C@H](C(=O)O)[C@@H](O)[C@H](O)[C@H]2O)c1)C(C)C [Compound 155],9.62,7.15,,,,,,,7.54,
CC[C@H](C)[C@@H]([C@@H](CC(=O)N1CCC[C@H]1[C@H](OC)[C@@H](C)C(=O)N[C@H](C)[C@@H](O)c1ccccc1)OC)N(C)C(=O)[C@@H](NC(=O)[C@H](C(C)C)N(C)C(=O)OCc1ccc(NC(=O)[C@H](C)NC(=O)[C@@H](NC(=O)CCOCCNCCC(=O)NCCNc2ncc(-c3cc(C)cc(F)c3)c(N3CCC(N)CC3)c2-c2nc3ccc(Cl)cc3[nH]2)C(C)C)c(O[C@@H]2O[C@H](C(=O)O)[C@@H](O)[C@H](O)[C@H]2O)c1)C(C)C [Compound 156],9.62,7.12,,,,,,,7.60,
CC[C@H](C)[C@@H]([C@@H](CC(=O)N1CCC[C@H]1[C@H](OC)[C@@H](C)C(=O)N[C@H](C)[C@@H](O)c1ccccc1)OC)N(C)C(=O)[C@@H](NC(=O)[C@H](C(C)C)N(C)C(=O)OCc1ccc(NC(=O)[C@H](C)NC(=O)[C@@H](NC(=O)[C@H](CS(=O)(=O)O)NC(=O)CCOCCOCCOCCOCCC(=O)NCCNc2ncc(-c3cc(C)cc(F)c3)c(N3CCC(N)CC3)c2-c2nc3ccc(Cl)cc3[nH]2)C(C)C)cc1C(=O)NCCN)C(C)C [Compound 158],9.62,8.52,,,,,,,7.92,
CC[C@H](C)[C@@H]([C@@H](CC(=O)N1CCC[C@H]1[C@H](OC)[C@@H](C)C(=O)N[C@H](C)[C@@H](O)c1ccccc1)OC)N(C)C(=O)[C@@H](NC(=O)[C@H](C(C)C)N(C)C(=O)OCc1ccc(NC(=O)[C@H](CCCNC(N)=O)NC(=O)[C@@H](NC(=O)[C@H](CS(N)(=O)=O)NC(=O)CCOCCC(=O)NCCNc2ncc(-c3cc(C)cc(F)c3)c(N3CCC(N)CC3)c2-c2nc3ccc(Cl)cc3[nH]2)C(C)C)cc1C(=O)NCCN)C(C)C [Compound 159],9.52,8.59,,,,,,,8.00,
